The values that follow come from US20070196376A1.

For one test, the target named is rat insulin (rat). Description: ELISA on rat insulin; No Ag well 0.10.
A further test concerns the target mouse insulin (mouse). Description: ELISA on mouse insulin; No Ag well 0.10.

Sequence of mouse insulin (mouse) (P01308 whole entry): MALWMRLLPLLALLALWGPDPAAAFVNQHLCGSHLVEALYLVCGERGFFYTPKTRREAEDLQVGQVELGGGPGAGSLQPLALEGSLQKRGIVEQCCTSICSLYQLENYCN

For the substance “positive control anti-rat insulin antibody”, the OD 450 with rat insulin (rat) was found to be 3.06 OD 450; in the test with mouse insulin (mouse), 2.52 OD 450.
